Experimental data reported in publication PMC5647421, “Hetero-oligomer of dynamin-related proteins participates in the fission of highly divergent mitochondria from Entamoeba histolytica” (Scientific Reports, 2017).
Several values for one entry are separate records, joined by “and”; a condition that tells them apart may be missing. Equal values may be shown once.

Target: T1, EhDrpA (endogenous) (Entamoeba histolytica (endogenous in …, UniProt C4LX84 1-682))
T1 construct: Entamoeba histolytica dynamin-related protein A (EhDrpA, earlier named EhDlp1), XP_649650; also called endogenous EhDrpA; native EhDrpA; source: endogenous, E. histolytica trophozoite whole cell lysate
T1 sequence (looked up): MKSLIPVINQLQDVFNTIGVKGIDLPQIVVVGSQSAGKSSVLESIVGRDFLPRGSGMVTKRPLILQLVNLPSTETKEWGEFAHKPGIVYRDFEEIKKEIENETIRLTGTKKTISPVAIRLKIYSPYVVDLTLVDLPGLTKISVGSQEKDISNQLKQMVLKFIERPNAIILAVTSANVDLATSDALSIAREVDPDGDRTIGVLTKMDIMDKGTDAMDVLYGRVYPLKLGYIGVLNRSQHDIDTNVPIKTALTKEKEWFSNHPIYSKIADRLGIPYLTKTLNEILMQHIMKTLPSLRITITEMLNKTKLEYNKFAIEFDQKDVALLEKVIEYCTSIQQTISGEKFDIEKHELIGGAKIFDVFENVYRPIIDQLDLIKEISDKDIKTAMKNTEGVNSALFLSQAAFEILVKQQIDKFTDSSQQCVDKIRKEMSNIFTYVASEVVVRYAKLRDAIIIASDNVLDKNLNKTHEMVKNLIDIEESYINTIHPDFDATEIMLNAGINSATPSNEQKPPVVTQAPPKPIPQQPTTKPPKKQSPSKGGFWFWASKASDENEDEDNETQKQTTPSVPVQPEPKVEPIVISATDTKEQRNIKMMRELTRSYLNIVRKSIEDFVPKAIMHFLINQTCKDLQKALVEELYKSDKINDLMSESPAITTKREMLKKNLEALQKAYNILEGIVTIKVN
Assay: co-IP; trophozoites of E. histolytica HM-1:IMSS cl6 wild type; immunoprecipitation by anti-DrpA or anti-DrpB antibodies; quantitative immunoblot with recombinant His6-EhDRP-HA proteins as standards
Conditions: partners not purified

B1: EhDrpB (endogenous) (natural protein, UniProt C4M3R5 1-663, looked up)
chain: MQRLIPVINSLQDVFTAAGLPNTLPLPQIVVVGSQSSGKSSVLEHVVGKDFLPRGSGIVTRRPLIVQCVRSNVAEDYGQFEHTGDRKFTDFGEIRNEITRETERTCPGRNVSSVPIRLRIYSSSVVDLTLVDLPGLVKVNINGQTAEMVKNLRDMVYEYASPSNALILAVTAGNIDIANSDALQVAKDVDPDGERTIGVLTKLDLEDKGTNSMDVLMGRVYPLKLGYIGVVNRSQQDINNGVDVKTSLRHEKEFFENHPVYCSIAERMGTEYMVNRLNVLLLQHIQKCLPGLKQQINQCYEKARSRYEDIKPDDENLLSLSLQQIMKFSGSFAAALNGTDTNIHTHEISGGAKIFSVFENNFRPTIDSQDILSGIKDVDILTAIKNASGTRPCLYVPQSAFENLISKQVRNFEGTCHNCVDNVYREMKVIVGKIAKDNIEKYDRFREALIQASTEVMNDYMTQTHKMVQDLIDIEADYINTSHPDFDTTKVLKEADEAMKTPQDGIDTIVTIDPNNTTNAQQYEAKKPVKSSFFAGQINKNQAKPQQQHVPKESITTSIRVDHTNQREMREINLIRNLCKDYLLIVRKSIKDLVPKAVIHFLVFKTRDSLQKELIKKLYNEALLQDLLAENPAIVNERKVVKQNLEALKKALDIINQVRDQCF
notes: Entamoeba histolytica dynamin-related protein B (EhDrpB), XP_651634; also called endogenous EhDrpB; native EhDrpB; source: endogenous, E. histolytica trophozoite whole cell lysate
stoichiometry N: 2 EhDrpB per EhDrpA and 3 EhDrpB per EhDrpA
